Experimental data taken from patent US20150307889.

Key:
[1] = test system: zmPPL_1360-r23a1 ZFN monomer (synthetic construct); assay: cell_activity; settings: ZFN pair with zmPPL_1360-30a1 in bombarded haploid maize callus; control 5.0; locus target SEQ 32
[2] = test system: zmPPL_1360-30a1 ZFN monomer (synthetic construct); assay: cell_activity; settings: ZFN pair with zmPPL_1360-r23a1 in bombarded haploid maize callus; control 5.0; locus target SEQ 32

ACTCCGTATGCGAAGGCA (double strand) [zmPPL_1360-r23a1 half-site (PPL1 locus)]
activity (indels per 1 million high quality reads) [1]: 40

TTCGCGGTGGGACACTTG (double strand) [zmPPL_1360-30a1 half-site (PPL1 locus)]
activity (indels per 1 million high quality reads) [2]: 40
